{"source": "patent US20100003195A1", "key": {"[1]": {"target": "KDR on KDR-transfected 293H cells (human) (UniProt P35968)", "sequence (P35968 20-1356)": "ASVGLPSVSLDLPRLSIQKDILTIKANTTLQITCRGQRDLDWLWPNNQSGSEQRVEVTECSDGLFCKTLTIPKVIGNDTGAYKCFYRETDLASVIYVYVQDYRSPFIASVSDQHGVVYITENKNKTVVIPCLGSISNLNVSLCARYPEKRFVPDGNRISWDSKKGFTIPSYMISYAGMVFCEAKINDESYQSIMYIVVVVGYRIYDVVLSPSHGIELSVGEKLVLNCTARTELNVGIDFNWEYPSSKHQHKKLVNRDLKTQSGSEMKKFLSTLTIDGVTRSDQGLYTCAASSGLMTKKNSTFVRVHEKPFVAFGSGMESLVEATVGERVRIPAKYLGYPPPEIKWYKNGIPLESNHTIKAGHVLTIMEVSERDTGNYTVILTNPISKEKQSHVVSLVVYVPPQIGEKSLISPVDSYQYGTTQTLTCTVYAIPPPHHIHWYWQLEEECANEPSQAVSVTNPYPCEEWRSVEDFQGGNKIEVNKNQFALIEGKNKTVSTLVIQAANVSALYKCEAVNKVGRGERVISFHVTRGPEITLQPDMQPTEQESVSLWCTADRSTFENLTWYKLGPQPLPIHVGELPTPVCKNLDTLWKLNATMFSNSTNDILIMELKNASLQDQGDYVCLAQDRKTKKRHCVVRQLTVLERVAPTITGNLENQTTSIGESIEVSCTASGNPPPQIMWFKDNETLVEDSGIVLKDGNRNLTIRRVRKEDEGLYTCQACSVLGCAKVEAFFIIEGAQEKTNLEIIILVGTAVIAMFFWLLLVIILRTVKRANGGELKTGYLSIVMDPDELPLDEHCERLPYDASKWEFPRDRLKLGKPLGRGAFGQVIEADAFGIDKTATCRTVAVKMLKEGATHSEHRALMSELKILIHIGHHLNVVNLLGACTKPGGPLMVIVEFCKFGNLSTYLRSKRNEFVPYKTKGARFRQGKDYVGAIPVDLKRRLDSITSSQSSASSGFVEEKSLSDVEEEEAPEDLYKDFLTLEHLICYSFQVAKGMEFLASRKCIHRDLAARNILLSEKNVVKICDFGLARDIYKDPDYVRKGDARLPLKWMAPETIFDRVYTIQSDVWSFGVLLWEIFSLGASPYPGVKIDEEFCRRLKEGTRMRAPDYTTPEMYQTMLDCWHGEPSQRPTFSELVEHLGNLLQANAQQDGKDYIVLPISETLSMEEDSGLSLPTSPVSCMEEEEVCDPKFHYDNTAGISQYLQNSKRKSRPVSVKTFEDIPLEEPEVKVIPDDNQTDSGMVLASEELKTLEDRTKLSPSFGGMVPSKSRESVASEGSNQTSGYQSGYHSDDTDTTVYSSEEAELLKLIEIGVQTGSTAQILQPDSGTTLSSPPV", "test": "scrambled-peptide microbubbles (Example 35) on KDR-transfected 293H cells, microscopy"}, "[2]": {"target": "KDR on KDR-transfected 293H cells (human) (UniProt P35968)", "test": "scrambled-peptide microballoons (Example 37) on KDR-transfected 293H cells, microscopy"}, "[3]": {"target": "KDR on KDR-transfected 293H cells (human) (UniProt P35968)", "test": "scrambled-peptide microbubbles (Example 36) on KDR-transfected 293H cells, microscopy"}}, "data": [{"substance": "microvesicles conjugated to a scrambled control peptide", "values": [{"measurement": "coverage % of the imaged surface", "setting": "[1]", "value": 2.1, "unit": "%"}, {"measurement": "coverage % of the imaged surface", "setting": "[2]", "value": 0.1, "unit": "%"}, {"measurement": "coverage % of the imaged surface", "setting": "[3]", "value": 2.2, "unit": "%"}]}]}
